Here are results for one molecule from article PMC4288179, “Synergic interplay of the La motif, RRM1 and the interdomain linker of LARP6 in the recognition of collagen mRNA expands the RNA binding repertoire of the La module”.

One series addresses T1, Interlinker chimera (Homo sapiens, UniProt Q9BRS8 70-178+P05455:101-111+181-300, internal_change).
T1 sequence: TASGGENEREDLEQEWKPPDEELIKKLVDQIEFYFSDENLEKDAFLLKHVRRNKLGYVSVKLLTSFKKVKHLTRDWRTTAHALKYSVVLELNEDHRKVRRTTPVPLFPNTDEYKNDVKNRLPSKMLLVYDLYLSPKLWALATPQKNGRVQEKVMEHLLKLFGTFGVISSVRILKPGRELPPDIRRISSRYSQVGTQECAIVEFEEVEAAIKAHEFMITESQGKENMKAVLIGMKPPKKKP
Kind of series: ITC; text says 500-fold decrease; table gives about 14-fold; ITC: 20 mM Tris pH 7.25, 100 mM KCl, 5 mM MgCl2, 1 mM DTT, 298 K; protein titrated into RNA. To be noted: protein: recombinant; tags: N-terminal His6 (TEV-cleavable); stem-loop with internal bulge. (In general: Isothermal titration calorimetry measures the heat released or taken up as one component is titrated into another.)

Series [1] addresses T2, HsLARP6 La module (70-300) (Homo sapiens, UniProt Q9BRS8 70-300).
T2 sequence: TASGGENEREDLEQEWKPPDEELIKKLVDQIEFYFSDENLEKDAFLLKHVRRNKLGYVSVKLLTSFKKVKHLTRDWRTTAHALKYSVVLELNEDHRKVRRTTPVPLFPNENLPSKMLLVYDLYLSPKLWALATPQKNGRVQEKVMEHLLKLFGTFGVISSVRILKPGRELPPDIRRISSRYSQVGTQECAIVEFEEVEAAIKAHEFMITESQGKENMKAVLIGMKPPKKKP
Description: ITC; 200 mM KCl; ITC: 20 mM Tris pH 7.25, 100 mM KCl, 5 mM MgCl2, 1 mM DTT, 298 K; protein titrated into RNA. To be noted: protein: recombinant; tags: N-terminal His6, TEV-cleaved for initial ITC; stem-loop with internal bulge.

Another series has as its target T3, HsLARP6(70-300) Q99A (Homo sapiens, UniProt Q9BRS8 70-300, Q99A).
T3 sequence: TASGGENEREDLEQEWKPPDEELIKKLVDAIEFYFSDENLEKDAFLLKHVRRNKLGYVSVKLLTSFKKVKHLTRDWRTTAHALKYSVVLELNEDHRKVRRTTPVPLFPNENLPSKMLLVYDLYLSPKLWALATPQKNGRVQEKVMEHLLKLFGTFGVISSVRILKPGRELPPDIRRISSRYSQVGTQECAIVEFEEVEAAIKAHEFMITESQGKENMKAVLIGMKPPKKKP
Kind of series: ITC; ITC: 20 mM Tris pH 7.25, 100 mM KCl, 5 mM MgCl2, 1 mM DTT, 298 K; protein titrated into RNA. To be noted: protein: recombinant; tags: N-terminal His6 (TEV-cleavable); stem-loop with internal bulge.

For the next series, the target named is T4, HsLARP6(70-300) R244A (Homo sapiens, UniProt Q9BRS8 70-300, R244A).
T4 sequence: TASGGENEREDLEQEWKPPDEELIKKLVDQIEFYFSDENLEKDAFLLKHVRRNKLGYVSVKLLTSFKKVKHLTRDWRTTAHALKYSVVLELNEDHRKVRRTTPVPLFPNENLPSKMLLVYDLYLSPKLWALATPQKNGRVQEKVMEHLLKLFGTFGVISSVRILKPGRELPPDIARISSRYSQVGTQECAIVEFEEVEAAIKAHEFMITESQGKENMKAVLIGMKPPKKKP
The series is described as above. To be noted: protein: recombinant; tags: N-terminal His6 (TEV-cleavable); stem-loop with internal bulge.

The next series concerns the target T5, Loop1 chimera (Homo sapiens, UniProt Q9BRS8 70-189+P05455:116-122+209-300, internal_change).
T5 sequence: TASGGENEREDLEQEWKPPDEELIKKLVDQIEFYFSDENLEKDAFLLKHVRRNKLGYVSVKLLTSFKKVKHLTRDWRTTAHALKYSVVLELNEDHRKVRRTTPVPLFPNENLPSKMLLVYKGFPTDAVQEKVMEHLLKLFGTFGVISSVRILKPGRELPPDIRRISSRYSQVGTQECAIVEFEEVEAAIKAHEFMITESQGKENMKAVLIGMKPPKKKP
The series is described as above. To be noted: protein: recombinant; tags: N-terminal His6 (TEV-cleavable); stem-loop with internal bulge.

The target of a further series is T6, HsLARP6 LaM (70-183) (Homo sapiens, UniProt Q9BRS8 70-183).
T6 sequence: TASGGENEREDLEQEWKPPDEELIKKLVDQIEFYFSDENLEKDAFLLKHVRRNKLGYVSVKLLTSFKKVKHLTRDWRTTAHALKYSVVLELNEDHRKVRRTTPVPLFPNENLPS
The series is described as above. To be noted: protein: recombinant; tags: N-terminal His6 (TEV-cleavable); stem-loop with internal bulge.

In a further series the target is T7, HsLARP6(70-300) D112A (Homo sapiens, UniProt Q9BRS8 70-300, D112A).
T7 sequence: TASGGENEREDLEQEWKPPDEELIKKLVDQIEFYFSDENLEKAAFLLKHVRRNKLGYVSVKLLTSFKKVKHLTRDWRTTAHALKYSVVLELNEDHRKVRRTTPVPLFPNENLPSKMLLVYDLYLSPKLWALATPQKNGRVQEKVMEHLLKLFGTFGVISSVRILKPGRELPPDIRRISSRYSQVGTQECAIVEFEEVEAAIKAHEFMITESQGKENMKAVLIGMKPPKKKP
The description is as above. To be noted: protein: recombinant; tags: N-terminal His6 (TEV-cleavable); stem-loop with internal bulge.

Another series concerns the target T8, HsLARP6(70-300) N180R (Homo sapiens, UniProt Q9BRS8 70-300, N180R).
T8 sequence: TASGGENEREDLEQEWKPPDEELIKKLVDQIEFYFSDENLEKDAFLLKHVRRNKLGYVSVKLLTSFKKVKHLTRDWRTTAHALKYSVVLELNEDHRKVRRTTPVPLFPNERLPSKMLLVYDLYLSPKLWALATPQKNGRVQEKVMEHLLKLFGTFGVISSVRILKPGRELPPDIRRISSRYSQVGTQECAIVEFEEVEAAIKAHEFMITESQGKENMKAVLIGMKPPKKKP
The description is as above. To be noted: protein: recombinant; tags: N-terminal His6 (TEV-cleavable); stem-loop with internal bulge.

One may read the Kd as the equilibrium constant for the complex coming apart. In the case of CCACAAAGAGUCUACAUGUCUAGGGUCUAGACAUGUUCAGCUUUGUGG (structured_RNA) [48 nt RNA (collagen alpha1(I) 5' UTR SL)], the Kd in the series with Interlinker chimera came out at 667 nM; in series [1] it was 50 nM; with HsLARP6(70-300) R244A, 71 nM; in the series with Loop1 chimera, 18 nM; with HsLARP6(70-300) D112A, 172 nM; in the series with HsLARP6(70-300) N180R it was 32 nM. For the same molecule, the binding result with HsLARP6(70-300) Q99A and with HsLARP6 LaM (70-183) was “no binding” throughout.
